Reference: patent publication US7432093B2, “Soluble, functional apoptotic protease-activating factor 1 fragments” (The Trustees of Princeton University, priority 2004, dated 2008)

assay type: physicochemical, E. coli
Description: Preferably, solubility of the fragment is assessed in a lysate of a bacterial culture used to produce the fragment at a concentration of at least 1 milligram per liter of bacterial culture.
All constructs for protein expression were generated using a standard PCR-based cloning strategy, and the identity of individual clones was verified by double-stranded plasmid sequencing. A soluble Apaf-1 fragment (residues 1-591, sequence (SEQ ID NO: 1) shown in FIG. 1) was over-expressed in Escherichia coli strain BL21(DE3) using plasmid vector pET29 having the nucleotide sequence described by Jiang et al. (2000, J. Biol. Chem. 275:31199-31203) operatively ligated therein. The coding sequence included an additional sequence encoding eight amino acid residues at its carboxy-terminal end (i.e., linked to residue 591 in the translated protein). These residues (Leu-Glu-His6) included a nickel-binding hexa-histidine sequence used for metal affinity chromatographic purification of the expressed protein. Soluble Apaf-1 was purified from the cell lysate using a Ni-NTA (nitrilotriacetic acid-ligated nickel; Qiagen) chromatography column. Dithiothreitol (DTT) and ethylenediamine tetraacetic acid (EDTA) were added to the eluted fraction in final concentrations of 5 millimolar each. After incubation for 30 minutes on ice, the protein solution was applied to an anion-exchange column (Source-15Q, Pharmacia) for further purification.

| Molecule | solubility and solution behavior (in words) | Solubility |
| --- | --- | --- |
| 1-611: recombinant Apaf-1 protein, residues 1-611 (protein, UniProt O14727 1-611, looked up, fragment) MDAKARNCLLQHREALEKDIKTSYIMDHMISDGFLTISEEEKVRNEPTQQQRAAMLIKMILKKDNDSYVSFYNALLHEGYKDLAALLHDGIPVVSSSSGKDSVSGITSYVRTVLCEGGVPQRPVVFVTRKKLVNAIQQKLSKLKGEPGWVTIHGMAGCGKSVLAAEAVRDHSLLEGCFPGGVHWVSVGKQDKSGLLMKLQNLCTRLDQDESFSQRLPLNIEEAKDRLRILMLRKHPRSLLILDDVWDSWVLKAFDSQCQILLTTRDKSVTDSVMGPKYVVPVESSLGKEKGLEILSLFVNMKKADLPEQAHSIIKECKGSPLVVSLIGALLRDFPNRWEYYLKQLQNKQFKRIRKSSSYDYEALDEAMSISVEMLREDIKDYYTDLSILQKDVKVPTKVLCILWDMETEEVEDILQEFVNKSLLFCDRNGKSFRYYLHDLQVDFLTEKNCSQLQDLHKKIITQFQRYHQPHTLSPDQEDCMYWYNFLAYHMASAKMHKELCALMFSLDWIKAKTELVGPAHLIHEFVEYRHILDEKDCAVSENFQEFLSLNGHLLGRQPFPNIVQLGLCEPETSEVYQQAKLQAKQEVDNGMLYLEWINKKNITNLSRLVV | good solubility and solution behavior |  |
| 1-570: recombinant Apaf-1 fragment, residues 1-570 of SEQ ID NO: 1 (protein, listed as Homo sapiens) MDAKARNCLLQHREALEKDIKTSYIMDHMISDGFLTISEEEKVRNEPTQQQRAAMLIKMILKKDNDSYVSFYNALLHEGYKDLAALLHDGIPVVSSSSGKDSVSGITSYVRTVLCEGGVPQRPVVFVTRKKLVNAIQQKLSKLKGEPGWVTIHGMAGCGKSVLAAEAVRDHSLLEGCFPGGVHWVSVGKQDKSGLLMKLQNLCTRLDQDESFSQRLPLNIEEAKDRLRILMLRKHPRSLLILDDVWDSWVLKAFDSQCQILLTTRDKSVTDSVMGPKYVVPVESSLGKEKGLEILSLFVNMKKADLPEQAHSIIKECKGSPLVVSLIGALLRDFPNRWEYYLKQLQNKQFKRIRKSSSYDYEALDEAMSISVEMLREDIKDYYTDLSILQKDVKVPTKVLCILWDMETEEVEDILQEFVNKSLLFCDRNGKSFRYYLHDLQVDFLTEKNCSQLQDLHKKIITQFQRYHQPHTLSPDQEDCMYWYNFLAYHMASAKMHKELCALMFSLDWIKAKTELVGPAHLIHEFVEYRHILDEKDCAVSENFQEFLSLNGHLLGRQPFPNIVQLGLCE | good solubility and solution behavior | +++ |
| 1-567: recombinant Apaf-1 fragment, residues 1-567 of SEQ ID NO: 1 (protein, listed as Homo sapiens) MDAKARNCLLQHREALEKDIKTSYIMDHMISDGFLTISEEEKVRNEPTQQQRAAMLIKMILKKDNDSYVSFYNALLHEGYKDLAALLHDGIPVVSSSSGKDSVSGITSYVRTVLCEGGVPQRPVVFVTRKKLVNAIQQKLSKLKGEPGWVTIHGMAGCGKSVLAAEAVRDHSLLEGCFPGGVHWVSVGKQDKSGLLMKLQNLCTRLDQDESFSQRLPLNIEEAKDRLRILMLRKHPRSLLILDDVWDSWVLKAFDSQCQILLTTRDKSVTDSVMGPKYVVPVESSLGKEKGLEILSLFVNMKKADLPEQAHSIIKECKGSPLVVSLIGALLRDFPNRWEYYLKQLQNKQFKRIRKSSSYDYEALDEAMSISVEMLREDIKDYYTDLSILQKDVKVPTKVLCILWDMETEEVEDILQEFVNKSLLFCDRNGKSFRYYLHDLQVDFLTEKNCSQLQDLHKKIITQFQRYHQPHTLSPDQEDCMYWYNFLAYHMASAKMHKELCALMFSLDWIKAKTELVGPAHLIHEFVEYRHILDEKDCAVSENFQEFLSLNGHLLGRQPFPNIVQLG | good solubility and solution behavior | +++ |
| 1-554: recombinant Apaf-1 fragment, residues 1-554 of SEQ ID NO: 1 (protein, listed as Homo sapiens) MDAKARNCLLQHREALEKDIKTSYIMDHMISDGFLTISEEEKVRNEPTQQQRAAMLIKMILKKDNDSYVSFYNALLHEGYKDLAALLHDGIPVVSSSSGKDSVSGITSYVRTVLCEGGVPQRPVVFVTRKKLVNAIQQKLSKLKGEPGWVTIHGMAGCGKSVLAAEAVRDHSLLEGCFPGGVHWVSVGKQDKSGLLMKLQNLCTRLDQDESFSQRLPLNIEEAKDRLRILMLRKHPRSLLILDDVWDSWVLKAFDSQCQILLTTRDKSVTDSVMGPKYVVPVESSLGKEKGLEILSLFVNMKKADLPEQAHSIIKECKGSPLVVSLIGALLRDFPNRWEYYLKQLQNKQFKRIRKSSSYDYEALDEAMSISVEMLREDIKDYYTDLSILQKDVKVPTKVLCILWDMETEEVEDILQEFVNKSLLFCDRNGKSFRYYLHDLQVDFLTEKNCSQLQDLHKKIITQFQRYHQPHTLSPDQEDCMYWYNFLAYHMASAKMHKELCALMFSLDWIKAKTELVGPAHLIHEFVEYRHILDEKDCAVSENFQEFLSLNGHL | good solubility and solution behavior | ++ |
| 1-286: recombinant Apaf-1 fragment, residues 1-286 of SEQ ID NO: 1 (protein, listed as Homo sapiens) MDAKARNCLLQHREALEKDIKTSYIMDHMISDGFLTISEEEKVRNEPTQQQRAAMLIKMILKKDNDSYVSFYNALLHEGYKDLAALLHDGIPVVSSSSGKDSVSGITSYVRTVLCEGGVPQRPVVFVTRKKLVNAIQQKLSKLKGEPGWVTIHGMAGCGKSVLAAEAVRDHSLLEGCFPGGVHWVSVGKQDKSGLLMKLQNLCTRLDQDESFSQRLPLNIEEAKDRLRILMLRKHPRSLLILDDVWDSWVLKAFDSQCQILLTTRDKSVTDSVMGPKYVVPVESSL | largely insoluble |  |
| 1-349: recombinant Apaf-1 fragment, residues 1-349 of SEQ ID NO: 1 (protein, listed as Homo sapiens) MDAKARNCLLQHREALEKDIKTSYIMDHMISDGFLTISEEEKVRNEPTQQQRAAMLIKMILKKDNDSYVSFYNALLHEGYKDLAALLHDGIPVVSSSSGKDSVSGITSYVRTVLCEGGVPQRPVVFVTRKKLVNAIQQKLSKLKGEPGWVTIHGMAGCGKSVLAAEAVRDHSLLEGCFPGGVHWVSVGKQDKSGLLMKLQNLCTRLDQDESFSQRLPLNIEEAKDRLRILMLRKHPRSLLILDDVWDSWVLKAFDSQCQILLTTRDKSVTDSVMGPKYVVPVESSLGKEKGLEILSLFVNMKKADLPEQAHSIIKECKGSPLVVSLIGALLRDFPNRWEYYLKQLQNKQ | soluble to significant extent | ++ |
| 1-591 K160R: Apaf-1 fragment 1-591 of SEQ ID NO: 1 with K160R substitution (protein, listed as Homo sapiens) MDAKARNCLLQHREALEKDIKTSYIMDHMISDGFLTISEEEKVRNEPTQQQRAAMLIKMILKKDNDSYVSFYNALLHEGYKDLAALLHDGIPVVSSSSGKDSVSGITSYVRTVLCEGGVPQRPVVFVTRKKLVNAIQQKLSKLKGEPGWVTIHGMAGCGRSVLAAEAVRDHSLLEGCFPGGVHWVSVGKQDKSGLLMKLQNLCTRLDQDESFSQRLPLNIEEAKDRLRILMLRKHPRSLLILDDVWDSWVLKAFDSQCQILLTTRDKSVTDSVMGPKYVVPVESSLGKEKGLEILSLFVNMKKADLPEQAHSIIKECKGSPLVVSLIGALLRDFPNRWEYYLKQLQNKQFKRIRKSSSYDYEALDEAMSISVEMLREDIKDYYTDLSILQKDVKVPTKVLCILWDMETEEVEDILQEFVNKSLLFCDRNGKSFRYYLHDLQVDFLTEKNCSQLQDLHKKIITQFQRYHQPHTLSPDQEDCMYWYNFLAYHMASAKMHKELCALMFSLDWIKAKTELVGPAHLIHEFVEYRHILDEKDCAVSENFQEFLSLNGHLLGRQPFPNIVQLGLCEPETSEVYQQAKLQAKQEVDNG | without significant loss of activity or solubility | ++ |
| C115S: point mutation C115S made in SEQ ID NO: 1 (protein, listed as Homo sapiens) MDAKARNCLLQHREALEKDIKTSYIMDHMISDGFLTISEEEKVRNEPTQQQRAAMLIKMILKKDNDSYVSFYNALLHEGYKDLAALLHDGIPVVSSSSGKDSVSGITSYVRTVLSEGGVPQRPVVFVTRKKLVNAIQQKLSKLKGEPGWVTIHGMAGCGKSVLAAEAVRDHSLLEGCFPGGVHWVSVGKQDKSGLLMKLQNLCTRLDQDESFSQRLPLNIEEAKDRLRILMLRKHPRSLLILDDVWDSWVLKAFDSQCQILLTTRDKSVTDSVMGPKYVVPVESSLGKEKGLEILSLFVNMKKADLPEQAHSIIKECKGSPLVVSLIGALLRDFPNRWEYYLKQLQNKQFKRIRKSSSYDYEALDEAMSISVEMLREDIKDYYTDLSILQKDVKVPTKVLCILWDMETEEVEDILQEFVNKSLLFCDRNGKSFRYYLHDLQVDFLTEKNCSQLQDLHKKIITQFQRYHQPHTLSPDQEDCMYWYNFLAYHMASAKMHKELCALMFSLDWIKAKTELVGPAHLIHEFVEYRHILDEKDCAVSENFQEFLSLNGHLLGRQPFPNIVQLGLCEPETSEVYQQAKLQAKQEVDNG | without significant loss of activity or solubility |  |
| 1-589: recombinant Apaf-1 fragment, residues 1-589 of SEQ ID NO: 1 (protein, listed as Homo sapiens) MDAKARNCLLQHREALEKDIKTSYIMDHMISDGFLTISEEEKVRNEPTQQQRAAMLIKMILKKDNDSYVSFYNALLHEGYKDLAALLHDGIPVVSSSSGKDSVSGITSYVRTVLCEGGVPQRPVVFVTRKKLVNAIQQKLSKLKGEPGWVTIHGMAGCGKSVLAAEAVRDHSLLEGCFPGGVHWVSVGKQDKSGLLMKLQNLCTRLDQDESFSQRLPLNIEEAKDRLRILMLRKHPRSLLILDDVWDSWVLKAFDSQCQILLTTRDKSVTDSVMGPKYVVPVESSLGKEKGLEILSLFVNMKKADLPEQAHSIIKECKGSPLVVSLIGALLRDFPNRWEYYLKQLQNKQFKRIRKSSSYDYEALDEAMSISVEMLREDIKDYYTDLSILQKDVKVPTKVLCILWDMETEEVEDILQEFVNKSLLFCDRNGKSFRYYLHDLQVDFLTEKNCSQLQDLHKKIITQFQRYHQPHTLSPDQEDCMYWYNFLAYHMASAKMHKELCALMFSLDWIKAKTELVGPAHLIHEFVEYRHILDEKDCAVSENFQEFLSLNGHLLGRQPFPNIVQLGLCEPETSEVYQQAKLQAKQEVD |  | ++++ |
